Key:
[1] = target: staphylococcal enterotoxin C3 (SEC3) (Staphylococcus aureus, UniProt P0A0L5 28-266)
[2] = target: staphylococcal enterotoxin C1 (SEC1) (Staphylococcus aureus, UniProt P01553 28-266)
[3] = target: staphylococcal enterotoxin B (SEB) (Staphylococcus aureus, UniProt P01552 28-266)
[4] = target: staphylococcal enterotoxin C2 (SEC2) (Staphylococcus aureus, UniProt P34071 28-266)

B1: APTSEB1 (ssDNA)
DNA: GGTATTGAGGGTCGCATCCACTGGTCGTTGTTGTCTGTTGTCTGTTATGTTGTTTCGTGATGGCTCTAACTCTCCTCT
- binding result [1]: no binding
- binding result [2]: no binding
- binding result [3]: binds
- binding result [4]: no binding

Reference: publication PMC3306407, “A Single-Stranded DNA Aptamer That Selectively Binds to Staphylococcus aureus Enterotoxin B”
